This is an account of results in patent publication US20100150906A1 (AC IMMUNE S A, published 2010).

No end group written: not given here.

Common to all, as to assay: ELISA, biotinylated peptide on streptavidin plate, O.D. 405 nm [upper chart, Figure 1]
For one assay, the target named is T1, peptide 11 (also: biotinylated, site not given here).
T1 construct: also called 11 on the axis Peptide number; first peptide library
T1 peptide: EVHHQKLVF
From the text:
(§1) One library comprised a total of 33 biotinylated peptides covering the complete amino acid (aa) sequence of Aβ1-42 (produced by Mimotopes and purchased from ANAWA Trading SA), the second library contains biotinylated peptides using peptide 12 (aa12-20 of Aβ) from the first peptide library and substituting each aa in the sequence by an alanine (see table 8 below), and the third library contains biotinylated peptides 13, 14, or 15 (aa 13-21, 14-22 or 15-23 of Aβ) and substituting in each case the last amino acids to an alanine or to a glycine for aa 21 which is already an alanine (see table 9 below). A biotinylated complete Aβ1-42 peptide was used as positive control (Bachem). Epitope mapping was done according to the manufacturer's (Mimotopes) instructions. Briefly, Streptavidin coated plates (NUNC) were blocked with 0.1% BSA in PBS overnight at 4° C. After washing with PBS-0.05% Tween 20, plates were coated for 1 hour at RT with the different peptides from the library, diluted in 0.1% BSA, 0.1% Sodium Azide in PBS to a final concentration of 10 μM. […] Plates were washed again and incubated with alkaline phosphatase conjugated goat anti human IgG for 1 h at RT.

For a further assay, the target named is T2, peptide 2 (also: biotinylated, site not given here).
T2 construct: also called 2 on the axis Peptide number; first peptide library
T2 peptide: AEFRHDSGY
From the text: as §1

Another assay addresses T3, peptide 24 (also: biotinylated, site not given here).
T3 construct: also called 24 on the axis Peptide number; first peptide library
T3 peptide: VGSNKGAII
From the text: as §1

Another assay deals with T4, peptide 30 (also: biotinylated, site not given here).
T4 construct: also called 30 on the axis Peptide number; first peptide library
T4 peptide: AIIGLMVGG
From the text: as §1

A further assay concerns the target T5, peptide 22 (also: biotinylated, site not given here).
T5 construct: also called 22 on the axis Peptide number; first peptide library
T5 peptide: EDVGSNKGA
From the text: as §1

The target in a further assay is T6, peptide 32 (also: biotinylated, site not given here).
T6 construct: also called 32 on the axis Peptide number; first peptide library
T6 peptide: IGLMVGGVV
From the text: as §1

The next assay deals with T7, peptide 4 (also: biotinylated, site not given here).
T7 construct: also called 4 on the axis Peptide number; first peptide library
T7 peptide: FRHDSGYEV
From the text: as §1

A further assay has as its target T8, peptide 8 (also: biotinylated, site not given here).
T8 construct: also called 8 on the axis Peptide number; first peptide library
T8 peptide: SGYEVHHQK
From the text: as §1

The target of a further assay is T9, peptide 1 (also: biotinylated, site not given here).
T9 construct: also called 1 on the axis Peptide number; first peptide library
T9 peptide: DAEFRHDSG
From the text: as §1

The next assay deals with T10, peptide 6 (also: biotinylated, site not given here).
T10 construct: also called 6 on the axis Peptide number; first peptide library
T10 peptide: HDSGYEVHH
From the text: as §1

A further assay concerns the target T11, peptide 17 (also: biotinylated, site not given here).
T11 construct: also called 17 on the axis Peptide number; first peptide library
T11 peptide: LVFFAEDVG
From the text: as §1

A further assay deals with T12, peptide 10 (also: biotinylated, site not given here).
T12 construct: also called 10 on the axis Peptide number; first peptide library
T12 peptide: YEVHHQKLV
From the text: as §1

B1: humanized anti-human amyloid beta monoclonal antibody hC2 (antibody, human IgG4 S228P, kappa, V domains shown)
VH: EVQLVESGGGLVQPGGSLRLSCAASGFTFSSYGMSWVRQAPGKGLELVASINSNGGSTYYPDSVKGRFTISRDNAKNSLYLQMNSLRAEDTAVYYCASGDYWGQGTTVTVSS
VL: DIVMTQSPLSLPVTPGEPASISCRSSQSLVYSNGDTYLHWYLQKPGQSPQLLIYKVSNRFSGVPDRFSGSGSGTDFTLKISRVEAEDVGVYYCSQSTHVPWTFGQGTKVEIKR
notes: also called humanized antibody C2; humanized C2
As for B1, the binding result with peptide 11, with peptide 2, with peptide 24, with peptide 30, with peptide 22 and with peptide 32 was “no binding (tested: 200 ng/ml (single concentration))” in each case. Moreover, the binding result in the assay with peptide 4, in the assay with peptide 8, with peptide 1, with peptide 6, in the assay with peptide 17 and with peptide 10 was “no binding (tested: 200 ng/ml (single concentration))” each time.
